B1: Hairpin Ribozyme (parent)
chain: GUCCUCUUUCACGUGCGCGUGAAAGAGAGAAGUGAACCAGAGAAACACACGUUGUGGUAUAUUACCUGGUA

Variants of: B1
Experiment: self-cleavage, relative activity (ratio to wild type); higher = more cleavage; co-transcriptional

Row | Variant | self-cleavage
1 | GUCCUCUUUCACGUGCGCGUGAAAGAGAGAAGUGAGCCAGAGAAACACACGUUGUGGUAUAUUAGCUGGUA [A36G C65G] | 0.138
2 | GUCCUCUUUCACGUGCGCGUGAAAGAGAGAAGUGAAACAGAGAAACAGACGUUGUGGUAUAUUACCUGGUA [C37A C48G] | 0.143
3 | GUCCUCUUUCACGUGCGCGUGAAAGAGAGAAGUGAAACAGAGAAACAUACGUUGUGGUAUAUUACCUGGUA [C37A C48U] | 0.0819
4 | GUCCUCUUUCACGUGCGCGUGAAAGAGAGAAGUGAUCCAGAGAAACACACGUUGUGGUAUAGUACCUGGUA [A36U U62G] | 0.216
5 | GUCCUCUUUCACGUGCGCGUGAAAGAGAGAAGUGAUCCAGAGAAACACACGUUGUGGUAUAAUACCUGGUA [A36U U62A] | 0.154
6 | GUCCUCUUUCACGUGCGCGUGAAAGAGAGAAGUGAAACAGAGAAACACACGUUGUGGUAUUUUACCUGGUA [C37A A61U] | 0.142
7 | GUCCUCUUUCACGUGCGCGUGAAAGAGAGAAGUGAAACAGAGAAACACACGUUGUGGUAUCUUACCUGGUA [C37A A61C] | 0.136
8 | GUCCUCUUUCACGUGCGCGUGAAAGAGAGAAGUGAUCCAGAGAAACACACGUUGUGGUAUAUUACCUGUUA [A36U G69U] | 0.228
9 | GUCCUCUUUCACGUGCGCGUGAAAGAGAGAAGUGAUCCAGAGAAACACACGUUGUGGUAUAUUACCUGCUA [A36U G69C] | 0.127
10 | GUCCUCUUUCACGUGCGCGUGAAAGAGAGAAGUGAUCCAGAGAAACACACGUUGUGGUAUAUUACCUGAUA [A36U G69A] | 0.173
11 | GUCCUCUUUCACGUGCGCGUGAAAGAGAGAAGUGAGCCAGAGAAACACACGUUGUGGUAUAUUACCUGGUU [A36G A71U] | 1.04
12 | GUCCUCUUUCACGUGCGCGUGAAAGAGAGAAGUGAGCCAGAGAAACAUACGUUGUGGUAUAUUACCUGGUA [A36G C48U] | 0.228
13 | GUCCUCUUUCACGUGCGCGUGAAAGAGAGAAGUGAGCCAGAGAAACAAACGUUGUGGUAUAUUACCUGGUA [A36G C48A] | 0.196
14 | GUCCUCUUUCACGUGCGCGUGAAAGAGAGAAGUGAAACAGAGAAACACUCGUUGUGGUAUAUUACCUGGUA [C37A A49U] | 0.0951
15 | GUCCUCUUUCACGUGCGCGUGAAAGAGAGAAGUGAGCCAGAGAAACACACGUUGAGGUAUAUUACCUGGUA [A36G U55A] | 0.301
16 | GUCCUCUUUCACGUGCGCGUGAAAGAGAGAAGUGAGCCAGAGAAACACACGUUGUGCUAUAUUACCUGGUA [A36G G57C] | 0.124
17 | GUCCUCUUUCACGUGCGCGUGAAAGAGAGAAGUGAGCCAGAGAAACACACGUUGUGAUAUAUUACCUGGUA [A36G G57A] | 0.148
18 | GUCCUCUUUCACGUGCGCGUGAAAGAGAGAAGUGAUCCAGAGAAACACACGUUGUGGUAUAUUAACUGGUA [A36U C65A] | 0.502
19 | GUCCUCUUUCACGUGCGCGUGAAAGAGAGAAGUGAAACCGAGAAACACACGUUGUGGUAUAUUACCUGGUA [C37A A39C] | 0.128

Row | Variant | self-cleavage
20 | GUCCUCUUUCACGUGCGCGUGAAAGAGAGAAGUGAGCCAGAGAAACACACGUUGUGGUAUAUUACCUGGCA [A36G U70C] | 1.35
21 | GUCCUCUUUCACGUGCGCGUGAAAGAGAGAAGUGAGCCAGAGAAACACACGUUGUGGUAUAUUACCUGGAA [A36G U70A] | 1.11
22 | GUCCUCUUUCACGUGCGCGUGAAAGAGAGAAGUGAGCCACAGAAACACACGUUGUGGUAUAUUACCUGGUA [A36G G40C] | 0.122
23 | GUCCUCUUUCACGUGCGCGUGAAAGAGAGAAGUGAAACAGAGAACCACACGUUGUGGUAUAUUACCUGGUA [C37A A45C] | 0.189
24 | GUCCUCUUUCACGUGCGCGUGAAAGAGAGAAGUGAUCCAGAGAAACACACGUUGUGGUGUAUUACCUGGUA [A36U A59G] | 0.19
25 | GUCCUCUUUCACGUGCGCGUGAAAGAGAGAAGUGAUCCAGUGAAACACACGUUGUGGUAUAUUACCUGGUA [A36U A41U] | 0.868
26 | GUCCUCUUUCACGUGCGCGUGAAAGAGAGAAGUGAUCCACAGAAACACACGUUGUGGUAUAUUACCUGGUA [A36U G40C] | 0.101
27 | GUCCUCUUUCACGUGCGCGUGAAAGAGAGAAGUGAUCCAUAGAAACACACGUUGUGGUAUAUUACCUGGUA [A36U G40U] | 0.126
28 | GUCCUCUUUCACGUGCGCGUGAAAGAGAGAAGUGAUCCGGAGAAACACACGUUGUGGUAUAUUACCUGGUA [A36U A39G] | 0.344
29 | GUCCUCUUUCACGUGCGCGUGAAAGAGAGAAGUGAGCCAGAGAAACACAAGUUGUGGUAUAUUACCUGGUA [A36G C50A] | 0.34
30 | GUCCUCUUUCACGUGCGCGUGAAAGAGAGAAGUGAUCCAGAGAAACACGCGUUGUGGUAUAUUACCUGGUA [A36U A49G] | 0.281
31 | GUCCUCUUUCACGUGCGCGUGAAAGAGAGAAGUGAAACAGAGGAACACACGUUGUGGUAUAUUACCUGGUA [C37A A43G] | 0.0981
32 | GUCCUCUUUCACGUGCGCGUGAAAGAGAGAAGUGAUCCAGAGAAACACACGUCGUGGUAUAUUACCUGGUA [A36U U53C] | 0.593
33 | GUCCUCUUUCACGUGCGCGUGAAAGAGAGAAGUGAGCCAGAGAAACACACGUUGUGGUAUAUUACGUGGUA [A36G C66G] | 0.288
34 | GUCCUCUUUCACGUGCGCGUGAAAGAGAGAAGUGAUCCAGAGAAACACACGUUGUGGUAUAUUACCUGGUA [A36U] | 0.602
35 | GUCCUCUUUCACGUGCGCGUGAAAGAGAGAAGUGAGCCAGAGAAACACACAUUGUGGUAUAUUACCUGGUA [A36G G51A] | 0.943
36 | GUCCUCUUUCACGUGCGCGUGAAAGAGAGAAGUGAUCCAGAGAAACACACGUUGUGUUAUAUUACCUGGUA [A36U G57U] | 0.209
37 | GUCCUCUUUCACGUGCGCGUGAAAGAGAGAAGUGAUCCAGAGAAACACACGUUGUGAUAUAUUACCUGGUA [A36U G57A] | 0.108
38 | GUCCUCUUUCACGUGCGCGUGAAAGAGAGAAGUGAAACAGAGAAAUACACGUUGUGGUAUAUUACCUGGUA [C37A C46U] | 0.0922
